Measurements taken from the supplement of paper PMC9112550, “Optimization of the antimicrobial peptide Bac7 by deep mutational scanning” (BMC Biology, 2022).

Tested on: Escherichia coli TOP10
Assay: shrunken log2 fold change of peptide-encoding DNA abundance (4.5 h post-induction vs induction); higher = less antimicrobial activity (less host growth inhibition)
Conditions: time post-induction: 4.5 h; library: site-saturation at positions 5, 18, 19, 20
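Also: peptides expressed intracellularly from a pBAD plasmid library in pooled LB shake-flask culture, induced with 0.3% L-arabinose, DNA abundance read by NGS, three biological replicates, DESeq2 with apeglm shrinkage.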

Sequence	shrunken log2 fold change
RRIRMRPPRLPRPRPRPGWPPRP	0.595
RRIRPRPPRLPRPRPRPTGYPRP	-0.151
RRIRARPPRLPRPRPRPVVSPRP	0.188
RRIRRRPPRLPRPRPRPDNFPRP	0.028
RRIRMRPPRLPRPRPRPVVGPRP	0.448
RRIRYRPPRLPRPRPRPFWNPRP	-0.178
RRIRFRPPRLPRPRPRPDKKPRP	-0.0461
RRIRQRPPRLPRPRPRPWSVPRP	-0.0201
RRIRNRPPRLPRPRPRPFNRPRP	-0.111
RRIRFRPPRLPRPRPRPPERPRP	0.891
RRIRRRPPRLPRPRPRPVGVPRP	0.705
RRIRIRPPRLPRPRPRPESYPRP	0.0064
RRIRIRPPRLPRPRPRPDKVPRP	-0.043
RRIRIRPPRLPRPRPRPYIEPRP	-0.266
RRIRARPPRLPRPRPRPDYEPRP	0.00147
RRIRCRPPRLPRPRPRPSAKPRP	0.189
RRIRDRPPRLPRPRPRPEMFPRP	-0.0156
RRIRLRPPRLPRPRPRPKLSPRP	0.0605
RRIRSRPPRLPRPRPRPMEDPRP	0.189
RRIRPRPPRLPRPRPRPDEWPRP	0.0186
RRIRWRPPRLPRPRPRPVMGPRP	0.37
RRIRDRPPRLPRPRPRPVSWPRP	1.13
RRIRCRPPRLPRPRPRPRTTPRP	0.472
RRIRCRPPRLPRPRPRPCPYPRP	-0.215
RRIRERPPRLPRPRPRPTLVPRP	-0.0681

Sequence	shrunken log2 fold change
RRIRMRPPRLPRPRPRPECMPRP	2.53
RRIRQRPPRLPRPRPRPTTAPRP	-0.00139
RRIRPRPPRLPRPRPRPQSEPRP	-0.381
RRIRQRPPRLPRPRPRPIHYPRP	0.0133
RRIRGRPPRLPRPRPRPEVDPRP	1.84
RRIRQRPPRLPRPRPRPEHWPRP	0.0788
RRIRLRPPRLPRPRPRPNGDPRP	-0.00192
RRIRLRPPRLPRPRPRPQFWPRP	0.099
RRIRFRPPRLPRPRPRPYKKPRP	-0.415
RRIRVRPPRLPRPRPRPDMRPRP	-0.437
RRIRLRPPRLPRPRPRPNGWPRP	0.044
RRIRSRPPRLPRPRPRPQTYPRP	-0.16
RRIRCRPPRLPRPRPRPLPTPRP	0.63
RRIRMRPPRLPRPRPRPLCMPRP	0.0571
RRIRHRPPRLPRPRPRPGCVPRP	0.000164
RRIRRRPPRLPRPRPRPPEKPRP	1.6
RRIRSRPPRLPRPRPRPERRPRP	0.23
RRIRLRPPRLPRPRPRPQKNPRP	-0.154
RRIRSRPPRLPRPRPRPRGYPRP	0.13
RRIRDRPPRLPRPRPRPQWGPRP	-0.0612
RRIRWRPPRLPRPRPRPDNCPRP	-0.015
RRIRPRPPRLPRPRPRPRHLPRP	-0.0836
RRIRLRPPRLPRPRPRPAPQPRP	0.609
RRIRWRPPRLPRPRPRPFSNPRP	-0.258
RRIRKRPPRLPRPRPRPNVAPRP	0.387

Sequence	shrunken log2 fold change
RRIRTRPPRLPRPRPRPYYKPRP	-0.38
RRIRTRPPRLPRPRPRPKPTPRP	0.0943
RRIRLRPPRLPRPRPRPGQPPRP	0.187
RRIRNRPPRLPRPRPRPLNTPRP	-0.413
RRIRLRPPRLPRPRPRPAWAPRP	0.232
RRIRFRPPRLPRPRPRPDQPPRP	0.57
RRIRQRPPRLPRPRPRPQHYPRP	-0.447
RRIRDRPPRLPRPRPRPVNCPRP	-0.328
RRIRQRPPRLPRPRPRPKSIPRP	-0.695
RRIRTRPPRLPRPRPRPQDRPRP	-0.0332
RRIRERPPRLPRPRPRPFVHPRP	-0.435
RRIRNRPPRLPRPRPRPKSWPRP	0.432
RRIRARPPRLPRPRPRPHLEPRP	-0.124
RRIRPRPPRLPRPRPRPWSGPRP	0.000793
RRIRHRPPRLPRPRPRPFCMPRP	-1.09
RRIRTRPPRLPRPRPRPKTEPRP	0.0183
RRIRCRPPRLPRPRPRPKEVPRP	-0.289
RRIRCRPPRLPRPRPRPGDAPRP	0.466
RRIRHRPPRLPRPRPRPINEPRP	-0.99
RRIRFRPPRLPRPRPRPLCDPRP	-0.196
RRIRKRPPRLPRPRPRPEWLPRP	0.576
RRIRTRPPRLPRPRPRPWQMPRP	-0.0135
RRIRLRPPRLPRPRPRPYIRPRP	-1.62
RRIRNRPPRLPRPRPRPYMTPRP	-0.509
RRIRQRPPRLPRPRPRPRRQPRP	0.197

Sequence	shrunken log2 fold change
RRIRPRPPRLPRPRPRPANRPRP	-0.125
RRIRERPPRLPRPRPRPHFSPRP	0.061
RRIRTRPPRLPRPRPRPYREPRP	-0.196
RRIRLRPPRLPRPRPRPCNQPRP	-1.15
RRIRNRPPRLPRPRPRPPCLPRP	-0.236
RRIRARPPRLPRPRPRPIAGPRP	0.163
RRIRNRPPRLPRPRPRPRYYPRP	-0.705
RRIRDRPPRLPRPRPRPGCNPRP	0.0955
RRIRKRPPRLPRPRPRPEIAPRP	2.48
RRIRMRPPRLPRPRPRPAWAPRP	0.663
RRIRARPPRLPRPRPRPIRTPRP	0.0627
RRIRFRPPRLPRPRPRPKQSPRP	0.328
RRIRNRPPRLPRPRPRPSQKPRP	-0.0723
RRIRMRPPRLPRPRPRPMFKPRP	0.0609
RRIRKRPPRLPRPRPRPTVKPRP	0.19
RRIRVRPPRLPRPRPRPDPYPRP	-0.1
RRIRCRPPRLPRPRPRPVTQPRP	-0.15
RRIRHRPPRLPRPRPRPWDEPRP	-0.175
RRIRSRPPRLPRPRPRPSLDPRP	-0.0696
RRIRVRPPRLPRPRPRPLSQPRP	-0.032
RRIRNRPPRLPRPRPRPWIGPRP	-0.128
RRIRSRPPRLPRPRPRPYCSPRP	-0.094
RRIRHRPPRLPRPRPRPLPHPRP	-0.162
RRIRVRPPRLPRPRPRPDWVPRP	-0.0925
RRIRNRPPRLPRPRPRPVPMPRP	-0.0134

Sequence	shrunken log2 fold change
RRIRKRPPRLPRPRPRPKAEPRP	0.669
RRIRYRPPRLPRPRPRPTEMPRP	-0.306
RRIRRRPPRLPRPRPRPEEMPRP	1.38
RRIRWRPPRLPRPRPRPSYIPRP	-0.715
RRIRQRPPRLPRPRPRPMMSPRP	-0.0325
RRIRIRPPRLPRPRPRPSLLPRP	-0.374
RRIRLRPPRLPRPRPRPSGCPRP	0.345
RRIRQRPPRLPRPRPRPLLKPRP	-0.321
RRIRVRPPRLPRPRPRPFIFPRP	-0.177
RRIRHRPPRLPRPRPRPVGWPRP	0.535
RRIRSRPPRLPRPRPRPMLNPRP	-0.198
RRIRKRPPRLPRPRPRPAKPPRP	0.464
RRIRCRPPRLPRPRPRPVLTPRP	-0.191
RRIRKRPPRLPRPRPRPGWHPRP	0.133
RRIRCRPPRLPRPRPRPQMNPRP	-0.416
RRIRVRPPRLPRPRPRPHDPPRP	0.0847
RRIRGRPPRLPRPRPRPSRFPRP	0.0371
RRIRLRPPRLPRPRPRPPLCPRP	0.162
RRIRLRPPRLPRPRPRPPTGPRP	0.146
RRIRGRPPRLPRPRPRPASCPRP	1.06
RRIRDRPPRLPRPRPRPWFDPRP	-0.15
RRIRKRPPRLPRPRPRPNSLPRP	-0.00111
RRIRNRPPRLPRPRPRPSILPRP	-0.151
RRIRTRPPRLPRPRPRPSHRPRP	-0.463
RRIRQRPPRLPRPRPRPMKSPRP	0.0232

Sequence	shrunken log2 fold change
RRIRYRPPRLPRPRPRPCICPRP	-0.0423
RRIRMRPPRLPRPRPRPHKEPRP	0.0586
RRIRCRPPRLPRPRPRPSIGPRP	-0.098
RRIRWRPPRLPRPRPRPHEFPRP	-0.0844
RRIRMRPPRLPRPRPRPIHNPRP	-0.58
RRIRFRPPRLPRPRPRPPILPRP	-0.254
RRIRERPPRLPRPRPRPDPQPRP	-0.102
RRIRTRPPRLPRPRPRPWFIPRP	-0.64
RRIRFRPPRLPRPRPRPECLPRP	-0.0562
RRIRPRPPRLPRPRPRPRLWPRP	0.917
RRIRRRPPRLPRPRPRPGKAPRP	0.112
RRIRPRPPRLPRPRPRPTKQPRP	0.169
RRIRIRPPRLPRPRPRPATPPRP	0.0979
RRIRTRPPRLPRPRPRPTNFPRP	-0.0921
RRIRMRPPRLPRPRPRPKLNPRP	0.851
RRIRQRPPRLPRPRPRPQEEPRP	-0.0176
RRIRTRPPRLPRPRPRPKWIPRP	-0.232
RRIRARPPRLPRPRPRPHEHPRP	0.0352
RRIRSRPPRLPRPRPRPKPFPRP	-0.646
RRIRYRPPRLPRPRPRPYYHPRP	-0.283
RRIRWRPPRLPRPRPRPQYIPRP	-0.944
RRIRGRPPRLPRPRPRPAIRPRP	0.768
RRIRYRPPRLPRPRPRPKKQPRP	-0.00353
RRIRYRPPRLPRPRPRPATNPRP	-0.387
RRIRRRPPRLPRPRPRPTHFPRP	1.01
